Source: paper PMC7713262, “Synthesis of high-titer alka(e)nes in Yarrowia lipolytica is enabled by a discovered mechanism” (Nature Communications, 2020)

What was measured:
[1] = substrate: CCCCCCCCCCCCCCCCCC(=O)O; assay: heptadecane formation by GC-FID; Eadie-Hofstee plot; type: biochemical, Chlorella variabilis; details: blue light, 20 h, 25 °C, 50 mM Tris-HCl pH 8.5, 30 vol% DMSO, lithium salt, kcat unit doubtful (Vmax 2.83 μM/h)
[2] = substrate: CCCCCCCCCCCCCCCCCC(=O)SCCNC(=O)CCNC(=O)[C@H](O)C(C)(C)COP(=O)(O)OP(=O)(O)OC[C@H]1O[C@@H](n2cnc3c(N)ncnc32)[C@H](O)[C@@H]1OP(=O)(O)O; assay: as above; type: biochemical, Chlorella variabilis; details: blue light, 20 h, 25 °C, 50 mM Tris-HCl pH 8.5, 30 vol% DMSO, lithium salt, kcat unit doubtful (Vmax 3.22 μM/h)

B1: CvFAP (fatty acid photodecarboxylase) (Chlorella variabilis) (protein)
chain: SAVEDIRKVLSDSSSPVAGQKYDYILVGGGTAACVLANRLSADGSKRVLVLEAGPDNTSRDVKIPAAITRLFRSPLDWNLFSELQEQLAERQIYMARGRLLGGSSATNATLYHRGAAGDYDAWGVEGWSSEDVLSWFVQAETNADFGPGAYHGSGGPMRVENPRYTNKQLHTAFFKAAEEVGLTPNSDFNDWSHDHAGYGTFQVMQDKGTRADMYRQYLKPVLGRRNLQVLTGAAVTKVNIDQAAGKAQALGVEFSTDGPTGERLSAELAPGGEVIMCAGAVHTPFLLKHSGVGPSAELKEFGIPVVSNLAGVGQNLQDQPACLTAAPVKEKYDGIAISDHIYNEKGQIRKRAIASYLLGGRGGLTSTGCDRGAFVRTAGQALPDLQVRFVPGMALDPDGVSTYVRFAKFQSQGLKWPSGITMQLIACRPQSTGSVGLKSADPFAPPKLSPGYLTDKDGADLATLRKGIHWARDVARSSALSEYLDGELFPGSGVVSDDQIDEYIRRSIHSSNAITGTCKMGNAGDSSSVVDNQLRVHGVEGLRVVDASVVPKIPGGQTGAPVVMIAERAAALLTGKATIGASAAAPATVAA
notes: codon-optimised gene, C-terminal 6xHis tag (3'-terminus), pET28, E. coli BL21(DE3), Ni-NTA purified
B1 gave a Km [1] of 108.31 µM, a kcat [1] of 979.62 s⁻¹ and a Km [2] of 75.30 µM.
